Laboratory results reported in PMC9455167.

Experiments:
[1] = biological target: Recombinant human Src kinase (Abcam 79635) (human) (UniProt P12931)
[2] = biological target: Recombinant human Src kinase (Abcam 79635) (human) (UniProt P12931); test: MST; RED-tris-NTA-labelled His-tagged Src kinase constant at 50 nM; unlabelled Na,K-ATPase 0.2 nM to 16 µM; 50 mM Tris/HCl pH 7.4, 150 mM NaCl, 10 mM MgCl2; Monolith NT.115, LED 100%, MST power 40%

reduction of Src autophosphorylation at Tyr416 in vitro (purified Na,K-ATPase, Src kinase, ATP; Western blot p-Src/Src) [1]: 70% | Kd [2]: 210 nM
Substance: Na,K-ATPase purified from duck salt glands (complex)
